Reference: patent publication US20220073617A1 (Five Prime, published 2022)
Residue numbers refer to the chain shown, from its start. In names and notes the source's numbering stands.

B1: P1-064472 (41F11_VH_F27E) (antibody, V domains shown)
VH: QVQLVESGGGLVKPGGSLRLSCAASGETFSDYYMSWIRQAPGKGLEWVSYISNSGSPIYYADSVKGRFTISRDNAKNSLYLQMNSLRAEDTAVYYCARDLPGWYFDLWGRGTLVTVSS
VL: EIVLTQSPATLSLSPGERATLSCRASQSVSSYLAWYQQKPGQAPRLLIYDASNRATGIPARFSASGSGTDFTLTISSLEPEDFAVYYCQQRNNWPRTFGQGTKVEIK
notes: Kabat positions; also called P1-064472-1
B2: P1-064502 (41F11_Vk_R96YA64G) (antibody, V domains shown)
VH: B1 VH with E27F
VL: B1 VL with A64G, R96Y
notes: also called P1-064502-1
B3: P1-065329 (41F11_VH_D31E/S35Y/Y50W/S55E/A60H/Y100E/F100aG VK_A64G) (antibody, V domains shown)
VH: B1 VH with E27F, D31E, S35Y, Y50W, S56E, A61H, Y104E, F105G
VL: B1 VL with A64G
notes: Kabat positions; also called P1-065329-1
B4: P1-065316 (41F11_VH_A60H VK A64G) (antibody, V domains shown)
VH: B1 VH with E27F, A61H
VL: B1 VL with A64G
notes: Kabat positions; also called P1-065316-1
B5: P1-064534 (41F11_VH_D31E/S35Y/Y50W/S55E/A60H/Y100E/F100aG) (antibody, V domains shown)
VH: B1 VH with E27F, D31E, S35Y, Y50W, S56E, A61H, Y104E, F105G
VL: B1 VL
notes: Kabat positions; also called P1-064534-1
B6: P1-064486 (41F11_VH_F100aG) (antibody, V domains shown)
VH: B1 VH with E27F, F105G
VL: B1 VL
notes: Kabat positions; also called P1-064486-1
B7: P1-064484 (41F11_VH_L96E) (antibody, V domains shown)
VH: B1 VH with E27F, L100E
VL: B1 VL
notes: Kabat positions; also called P1-064484-1
B8: P1-064528 (41F11_VH_D31E/Y50W/S55E/L96E/Y100E) (antibody, V domains shown)
VH: B1 VH with E27F, D31E, Y50W, S56E, L100E, Y104E
VL: B1 VL
notes: Kabat positions; also called P1-064528-1
B9: P1-064526 (41F11_VH_D31E/Y50W/S55E/A60H/Y100E) (antibody, V domains shown)
VH: B1 VH with E27F, D31E, Y50W, S56E, A61H, Y104E
VL: B1 VL
notes: Kabat positions; also called P1-064526-1
B10: P1-064516 (41F11_Vk_V29D/A64G/R91T/R96Y) (antibody, V domains shown)
VH: B1 VH with E27F
VL: B1 VL with V29D, A64G, R91T, R96Y
notes: also called P1-064516-1
B11: P1-064500 (41F11_Vk_Q90DA64G) (antibody, V domains shown)
VH: B1 VH with E27F
VL: B1 VL with A64G, Q90D
notes: also called P1-064500-1
B12: P1-064478 (41F11_VH_Y50E) (antibody, V domains shown)
VH: B1 VH with E27F, Y50E
VL: B1 VL
notes: Kabat positions; also called P1-064478-1
B13: P1-064540 (41F11_VH_T28P/Y50W/S55E/A60H/Y100E) (antibody, V domains shown)
VH: B1 VH with E27F, T28P, Y50W, S56E, A61H, Y104E
VL: B1 VL
notes: Kabat positions; also called P1-064540-1
B14: P1-065312 (41F11_VH_F27E VK_A64G) (antibody, V domains shown)
VH: B1 VH
VL: B1 VL with A64G
notes: Kabat positions; also called P1-065312-1
B15: P1-064480 (41F11_VH_A60H) (antibody, V domains shown)
VH: B1 VH with E27F, A61H
VL: B1 VL
notes: Kabat positions; also called P1-064480-1
B16: P1-065318 (41F11_VH_L96E VK A64G) (antibody, V domains shown)
VH: B1 VH with E27F, L100E
VL: B1 VL with A64G
notes: Kabat positions; also called P1-065318-1
B17: P1-065319 (41F11_VH_F100aG VK_A64G) (antibody, V domains shown)
VH: B1 VH with E27F, F105G
VL: B1 VL with A64G
notes: Kabat positions; also called P1-065319-1
B18: P1-065325 (41F11_VH_D31E/Y50W/S55E/A60H/Y100E VK_A64G) (antibody, V domains shown)
VH: B1 VH with E27F, D31E, Y50W, S56E, A61H, Y104E
VL: B1 VL with A64G
notes: Kabat positions; also called P1-065325-1
B19: P1-064494 (41F11_Vk_A25EA64G) (antibody, V domains shown)
VH: B1 VH with E27F
VL: B1 VL with A25E, A64G
notes: also called P1-064494-1

What follows are binders tested against T1, monovalent hVISTA-ECD (human VISTA extracellular domain with His tail) (human, UniProt Q9H7M9 33-193) (assay: SPR, pH 7.4).
T1 construct: analyte flowed over captured antibody; also called huVISTA-His
Experimental: (§1) Binding of several preparations of each of the '029 progeny clones and of the parent '029 antibodies, formatted as IgG1.3 antibodies, to human VISTA at pH 6.0 and 7.4 was measured by Surface plasmon resonance (SPR). SPR analysis was performed to measure koff and KD binding affinity measurements for VISTA Abs at acidic and neutral pHs using a Biacore® T100 instrument (GE Healthcare). Protein A (ThermoFisher Scientific catalog #21181) was diluted to 20 ug/ml in 10 mM sodium acetate pH 4.5 and immobilized onto flow cells of a CM5 biosensor following the manufacturer's amine coupling protocol (GE Healthcare), targeting 2,000 RU immobilization density of Protein A per flow cell. SPR experiments were conducted at 37° C. using PBST (137 mM sodium chloride, 2.7 mM potassium chloride, 10 mM phosphate buffer, 0.05% Tween® 20) running buffer at pH 7.4 and 6.0. Antibodies were diluted to 25 nM in PBST pH 7.4, and were captured across active biosensor flow cells at 5 ul/min for 60 seconds. […] Two 15 second injections of 10 mM glycine pH 1.5 were used to regenerate the Protein A capture surface between assay cycles. Rate constants ka (kₒₙ) and kd (koff) were derived from reference flow cell and 0 nM blank-subtracted sensorgrams, and were fit to a 1:1 binding model in Biacore® T200 Evaluation Software v.2.0. The affinity constant, KD was calculated as the ratio of rate constants koff/kₒₙ for each VISTA antibody. […]

T1 sequence (Q9H7M9 other isoform, or with tags, fused parts or gaps limits assumed): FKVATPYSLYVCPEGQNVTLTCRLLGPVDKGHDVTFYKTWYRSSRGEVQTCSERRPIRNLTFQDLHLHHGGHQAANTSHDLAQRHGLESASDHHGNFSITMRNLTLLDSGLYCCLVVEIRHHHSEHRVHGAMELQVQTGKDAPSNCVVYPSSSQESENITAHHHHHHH

Binder	Kd	koff	kon
B1	3.6 nM	0.000987 s⁻¹	274000 M⁻¹ s⁻¹
B2	40.8 nM	0.0123 s⁻¹	301000 M⁻¹ s⁻¹
B3	478 nM	0.000858 s⁻¹	1800 M⁻¹ s⁻¹
B4	4.12 nM	0.000995 s⁻¹	242000 M⁻¹ s⁻¹
B5	16.2 nM	0.000675 s⁻¹	41700 M⁻¹ s⁻¹
B6	15.3 nM	0.00341 s⁻¹	223000 M⁻¹ s⁻¹
B7	26.1 nM	0.00353 s⁻¹	135000 M⁻¹ s⁻¹
B8	0.768 nM	0.000227 s⁻¹	296000 M⁻¹ s⁻¹
B9	0.196 nM	0.000109 s⁻¹	555000 M⁻¹ s⁻¹
B10	19.1 nM	0.00223 s⁻¹	117000 M⁻¹ s⁻¹
B11	44.7 nM	0.0145 s⁻¹	325000 M⁻¹ s⁻¹
B12	6.89 nM	0.000381 s⁻¹	55400 M⁻¹ s⁻¹
B13	0.285 nM	0.000158 s⁻¹	553000 M⁻¹ s⁻¹
B14	6.61 nM	0.00131 s⁻¹	198000 M⁻¹ s⁻¹
B15	2.36 nM	0.000755 s⁻¹	320000 M⁻¹ s⁻¹
B16	38.5 nM	0.0042 s⁻¹	109000 M⁻¹ s⁻¹
B17	24.6 nM	0.00514 s⁻¹	209000 M⁻¹ s⁻¹
B18	0.255 nM	0.000158 s⁻¹	618000 M⁻¹ s⁻¹
B19	10.3 nM	0.00207 s⁻¹	200000 M⁻¹ s⁻¹

These binders were tested against T1, monovalent hVISTA-ECD (human VISTA …) (assay: SPR).
Experimental: as §1

Binder	KD ratio (pH 7.4/pH 6.0)
B1	0.2
B2	0.5
B3	40.2
B4	0.28
B5	1.79
B6	0.45
B7	3.64
B8	4.6
B9	0.8
B10	2.45
B11	0.48
B12	0.07
B13	1.06
B14	0.3
B15	0.17
B16	4.91
B17	0.85
B18	1.42
B19	0.29

Each binder was assayed against T1, monovalent hVISTA-ECD (human VISTA …) (assay: SPR, pH 6.0).
Experimental: as §1

Binder	Kd	koff	kon
B1	18 nM	0.0411 s⁻¹	2.29e+06 M⁻¹ s⁻¹
B2	81.7 nM	0.332 s⁻¹	4.06e+06 M⁻¹ s⁻¹
B3	11.9 nM	0.00791 s⁻¹	663000 M⁻¹ s⁻¹
B4	14.5 nM	0.0561 s⁻¹	3.86e+06 M⁻¹ s⁻¹
B5	9.05 nM	0.00649 s⁻¹	717000 M⁻¹ s⁻¹
B6	34.3 nM	0.105 s⁻¹	3.07e+06 M⁻¹ s⁻¹
B7	7.18 nM	0.0153 s⁻¹	2.13e+06 M⁻¹ s⁻¹
B8	0.167 nM	0.000584 s⁻¹	3.49e+06 M⁻¹ s⁻¹
B9	0.245 nM	0.00094 s⁻¹	3.84e+06 M⁻¹ s⁻¹
B10	7.81 nM	0.0178 s⁻¹	2.28e+06 M⁻¹ s⁻¹
B11	94.1 nM	0.157 s⁻¹	1.67e+06 M⁻¹ s⁻¹
B12	96.5 nM	0.0121 s⁻¹	126000 M⁻¹ s⁻¹
B13	0.268 nM	0.00192 s⁻¹	7.16e+06 M⁻¹ s⁻¹
B14	22.3 nM	0.0449 s⁻¹	2.01e+06 M⁻¹ s⁻¹
B15	14.2 nM	0.0329 s⁻¹	2.32e+06 M⁻¹ s⁻¹
B16	7.84 nM	0.0154 s⁻¹	1.96e+06 M⁻¹ s⁻¹
B17	29.1 nM	0.0385 s⁻¹	1.32e+06 M⁻¹ s⁻¹
B18	0.179 nM	0.00143 s⁻¹	7.99e+06 M⁻¹ s⁻¹
B19	35.6 nM	0.0485 s⁻¹	1.36e+06 M⁻¹ s⁻¹
